Source: patent US20210047435A1 (Janssen / Centocor, published 2021)
Substitutions are numbered along the chain they refer to. Names may count otherwise. Blank lines part the entries; values can stand above or below the binder they belong to.

Biological target: T1, LTBR (form used for the KD not stated) (human, UniProt P36941 31-227, limits assumed)
T1 construct: neither the method nor the LTBR construct is described; also called human LTBR; TNFRSF3
Experiment: method not stated; stapled scFv variant against LTBR

T1 sequence (P36941 31-227 limits assumed): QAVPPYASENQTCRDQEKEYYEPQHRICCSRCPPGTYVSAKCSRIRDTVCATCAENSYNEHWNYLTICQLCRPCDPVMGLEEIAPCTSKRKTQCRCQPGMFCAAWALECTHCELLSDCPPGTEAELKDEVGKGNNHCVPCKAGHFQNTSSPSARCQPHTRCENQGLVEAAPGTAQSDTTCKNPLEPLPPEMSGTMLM

- Kd: ~60 nM
B1: stapled scFv (VL3 Y36F S49Y F87Y) BHA10 (VH-VL) (scFv)
scFv: QVQLVQSGAEVKKPGSSVKVSCKASGYTFTTYYLHWVRQAPGCGLEWMGWIYPGNVHAQYNEKFKGRVTITADKSTSTAYMELSSLRSEDTAVYYCARSWEGFPYWGQGTTVTVSSGGGSGGGSGCPPCGGGGDIQMTQSPSSLSASVGDRVTITCKASQNVGINVAWFQQKPGKAPKSLIYSASYRYSGVPSRFSGSGSGTDFTLTISSLQPEDFATYYCQQYDTYPFTFGCGTKVEIK

- Kd: ~600 nM
B2: stapled scFv (VH CDR1 Y33A) BHA10 (VH-VL) (scFv)
scFv: B1 scFv with Y33A, F169Y, Y182S, Y220F
